The target of data set [1] is T1, dAtCas9 (Alicyclobacillus tengchongensis, D8A,H617A,N640A).
T1 chain: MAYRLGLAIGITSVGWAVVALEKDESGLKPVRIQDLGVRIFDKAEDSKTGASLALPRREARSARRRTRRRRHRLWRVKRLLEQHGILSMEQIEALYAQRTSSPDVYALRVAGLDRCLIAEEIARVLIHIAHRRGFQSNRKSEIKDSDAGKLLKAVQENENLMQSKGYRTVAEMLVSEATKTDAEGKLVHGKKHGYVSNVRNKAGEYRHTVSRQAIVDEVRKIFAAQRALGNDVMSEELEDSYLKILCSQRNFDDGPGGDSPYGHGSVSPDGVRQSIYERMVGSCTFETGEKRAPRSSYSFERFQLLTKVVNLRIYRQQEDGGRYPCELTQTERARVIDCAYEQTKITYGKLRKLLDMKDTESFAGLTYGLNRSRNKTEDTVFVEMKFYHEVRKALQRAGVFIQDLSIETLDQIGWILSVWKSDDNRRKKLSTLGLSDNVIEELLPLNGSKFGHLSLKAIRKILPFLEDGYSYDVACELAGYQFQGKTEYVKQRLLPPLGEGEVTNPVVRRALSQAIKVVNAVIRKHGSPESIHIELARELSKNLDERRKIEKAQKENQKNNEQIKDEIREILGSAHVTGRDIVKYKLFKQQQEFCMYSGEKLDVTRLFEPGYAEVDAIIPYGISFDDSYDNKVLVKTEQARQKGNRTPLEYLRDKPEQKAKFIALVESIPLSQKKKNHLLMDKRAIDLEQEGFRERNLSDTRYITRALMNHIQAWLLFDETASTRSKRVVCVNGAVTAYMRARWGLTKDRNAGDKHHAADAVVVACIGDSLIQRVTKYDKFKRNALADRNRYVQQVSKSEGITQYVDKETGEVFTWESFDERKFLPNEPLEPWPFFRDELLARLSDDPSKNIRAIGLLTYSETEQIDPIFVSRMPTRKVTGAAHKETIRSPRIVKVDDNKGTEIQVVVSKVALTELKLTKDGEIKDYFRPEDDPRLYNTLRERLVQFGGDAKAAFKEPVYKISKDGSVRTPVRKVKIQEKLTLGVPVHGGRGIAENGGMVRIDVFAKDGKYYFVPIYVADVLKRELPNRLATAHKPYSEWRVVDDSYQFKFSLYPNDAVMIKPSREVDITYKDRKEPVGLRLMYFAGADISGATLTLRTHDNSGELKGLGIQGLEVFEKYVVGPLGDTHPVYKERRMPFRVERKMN
The data set can be described thus: EMSA; PAM CTAA. Particulars: tags: 6xHis; label: Cy5; NcoI-linearized plasmid. How it is done:
(§1) A. Schematic diagram of AtCas9 domain structure showing RuvC and HNH nuclease domain mutation site. BH, arginine-rich bridge helix; REC, recognition lobe; L1, linker 1; L2, linker 2; WED, Wedge domain; TOPO, Topoisomerase-homology domain; CTD, C-terminal domain; HNH, HNH domain; D, Aspartic acid; H, Histidine; N, Asparagine; A, Alanine. B. (left) Electrophoretic mobility shift assay (EMSA) were carried out by incubating AtCas9 RNP with 25 nM Cy5-labeled oligonucleotides (50 bp) in buffer16 without Mg²⁺. […] (right) Catalytically dead AtCas9 (dAtCas9, D8A H617A N640A) were used for EMSA assay in the presence of Mg²⁺ C. […] The bulge substrate details are illustrated in FIG. 10B. […] MUT PAM TATA and WT PAM CTAA was used. D. Higher binding affinity of AtCas9 RNPs towards negative supercoiled dsDNA than linear dsDNA. 1 nM cy5-labeled negative supercoil plasmid or NcoI-linearized plasmid containing PAM (CTAA) or mutant PAM (TGAC) motif were incubated with dAtCas9 RNP complex at indicated dosage. ProK, Proteinase K.
(§2) dAtCas9 and sgRNA were mixed at 1:2 molar ratio in 1×buffer16. After incubation at room temperature for 10 minutes, the RNP mixture were diluted to various concentration ranging from […] to 0.6 nM and 4 nM cy5-labeled oligonucleotides was added. Binding reactions were carried out at 55° C. for 30 minutes. Samples were resolved on 4% native TBE-PAGE for oligonucleotides. […]
For orientation: In EMSA bound probe runs differently from free probe, usually more slowly.

The target of data set [2] is T1, dAtCas9. As to the kind of experiment: EMSA; SD 10.9; buffer16 with 10 mM Mg2+, 55C; PAM CTAA. To be noted: tags: 6xHis; label: 5' Cy5. How it is done: as §1, §2
The target in data set [3] is T2, dAtCas9-D1089A (Alicyclobacillus tengchongensis, D8A,H617A,N640A,D1089A).
T2 chain: T1 chain with D1089A
The data set can be described thus: EMSA; SD 15.39; PAM CTAA. To be noted: tags: 6xHis; label: 5' Cy5. From the text: (§3) A. Schematic representation of AtCas9 domain structure showing the positions of PAM-interacting (PI) mutations. BH, arginine-rich bridge helix; REC, recognition lobe; L1, L1 linker; L2, L2 linker; WED, Wedge domain; TOPO, Topoisomerase-homology domain; CTD, C-terminal domain; HNH, HNH domain; RuvC, RuvC domain; D, Aspartic acid; I, Isoleucine; S, Serine; G, Glycine; A, Alanine. B. Negative supercoil and linearized DNA of different PAM were cleaved by WT AtCas9 and two PI mutants, m4 and m5. Each PAM variant has at least two distinct spacer sequences for cleavage assays. Use Image Lab software to analyzed the percentage of cutting products and take the average value of each PAM variant for graphing. m4, D1089A; m5, D1089A S1091A G1092A. C. Sequence logo for the AtCas9 PI domain mutant m4 (D1089A) PAM as determined by linearized PAM library substrates cleavage assay. D. EMSA assay were performed with 5′ cy5-labeled oligonucleotides carrying WT PAM (CTAA, left) or MUT PAM (TATA, right), and dAtCas9 or dAtCas9-D1089A RNP complex titrating from 1.2 nM to 2.4 μM. […] E. SpCas9 RNPs hardly bind to mut PAM (GTC) dsDNA compared with wt PAM (AGG) dsDNA. KD±SD for SpCas9 to WT PAM dsDNA, 300±10.57 nM; KD±SD for SpCas9 to MUT PAM dsDNA, ˜2.495e+18 nM.
(§4) dAtCas9 and sgRNA were mixed at 1:2 molar ratio in 1×buffer16. […]

The target of data set [4] is T1, dAtCas9. The data set can be described thus: EMSA; SD 12.05; second measurement, PAM CTAA; guide 21a sgRNA-At. Particulars: tags: 6xHis; label: 5' Cy5.
From the text: as §3, §4

Data set [5] has as its target T1, dAtCas9. As to the kind of experiment: EMSA; SD 7.1; second measurement, mutated PAM TATA. To be noted: tags: 6xHis; label: 5' Cy5.
From the text: as §3, §4

Data set [6] has as its target T1, dAtCas9. As to the kind of experiment: EMSA; SD 4.5; mutated PAM TATA; buffer16, 55C. To be noted: tags: 6xHis; label: 5' Cy5. How it is done:
as §1, §2

In data set [7] the target is T2, dAtCas9-D1089A. As to the kind of experiment: EMSA; SD 13.6; PAM TATA. To be noted: tags: 6xHis; label: 5' Cy5.
From the text: as §3, §4

Data set [8] has as its target T1, dAtCas9. As to the kind of experiment: EMSA; SD 12.2; mutated PAM TATA with 1-2 bulge. Particulars: tags: 6xHis; label: 5' Cy5; 2-base bulge at PAM-proximal positions 1-2. The procedure:
as §1, §2

Positions count from the first letter of the chain named.

B1: 27m sgRNA-At ; 27m WT PAM (CTAA) mini plasmid, linear (ssRNA ; dsDNA)
RNA: GAAGAUCCUUUGAUCUUUUCUACGGGUCAUAGUUCCCUCACAAGCCUCGAUGUGGUAUGAUGAAAAUCAUACCACAUCAAGGCUUGCGAGGUUGCUAUGAUAAGGCAACAGGCCGCAAAGCACUGACCCGCAUUCCAAUGAAUGCGGGUCAUCUACUUUUU
DNA 1: GAAGATCCTTTGATCTTTTCTACGGGGTCCTAA
DNA 2: TTAGGACCCCGTAGAAAAGATCAAAGGATCTTC
Regarding B1, the binding result with dAtCas9 [1] is recorded as “binds”.

B2: 21a sgRNA-At full length ; 50 bp 21a WT PAM (CTAA) (ssRNA ; dsDNA)
RNA: AAAUGCCUUCGAUUUUACCCCAACGAAUAAGUCAUAGUUCCCUCACAAGCCUCGAUGUGGUAUGAUGAAAAUCAUACCACAUCAAGGCUUGCGAGGUUGCUAUGAUAAGGCAACAGGCCGCAAAGCACUGACCCGCAUUCCAAUGAAUGCGGGUCAUCUACUUUUU
DNA 1: AAATGCCTTCGATTTTACCCCAACGAATAACAGGCTAAAATATGGACCTG
DNA 2: CAGGTCCATATTTTAGCCTGTTATTCGTTGGGGTAAAATCGAAGGCATTT
Broadly, the Kd is the free concentration of one partner at which half of the binding sites on the other are occupied at equilibrium, for simple one-to-one binding. High values mean lower affinity, low ones higher affinity. Consider B2, for which the Kd in the data set with dAtCas9 [2] came out at 0.0224 µM; in the data set with dAtCas9-D1089A [3] it was 0.0444 µM; with dAtCas9 [4], 0.0262 µM.

B3: 21a sgRNA-At full length ; 50 bp 21a mutated PAM (TATA), 0 bulge (ssRNA ; dsDNA)
RNA: B2 RNA
DNA 1: AAATGCCTTCGATTTTACCCCAACGAATAAGTCATATAAATATGGACCTG
DNA 2: CAGGTCCATATTTATATGACTTATTCGTTGGGGTAAAATCGAAGGCATTT
Take B3: the Kd in the data set with dAtCas9 [5] turned out to be 0.109 µM; in the data set with dAtCas9 [6], 0.248 µM; with dAtCas9-D1089A [7], 0.0272 µM.

B4: 21a sgRNA-At full length ; 50 bp 21a mutated PAM, 1-2 bulge (ssRNA ; dsDNA)
RNA: B2 RNA
DNA 1: B3 DNA 1 with A29T, A30T
DNA 2: B3 DNA 2
In the data set with dAtCas9 [8], B4 returned a Kd of 0.0295 µM.

(Values after patent publication US20250346878, “EDITING OF DOUBLE-STRANDED DNA WITH RELAXED PAM REQUIREMENT” (WUHAN UNIVERSITY, published 2025).)
